Test results taken from patent US20240261333A1, “NOVEL TARGETS FOR ENHANCING ANTI-TUMOR IMMUNITY” (THE BROAD INSTITUTE, INC., priority 2021, published 2024).

T1: B3GNT2 (Homo sapiens, UniProt Q9NY97)
T1 construct: The respective ORFs of candidate genes [CD274 (NM_014143), MCL1 (NM_021960), JUNB (NM_002229), and B3GNT2 (NM_006577)] were synthesized; expressed in transfected cells; host or cells: A375 melanoma cells (lentiviral ORF overexpression)
T1 sequence (Q9NY97 1-397): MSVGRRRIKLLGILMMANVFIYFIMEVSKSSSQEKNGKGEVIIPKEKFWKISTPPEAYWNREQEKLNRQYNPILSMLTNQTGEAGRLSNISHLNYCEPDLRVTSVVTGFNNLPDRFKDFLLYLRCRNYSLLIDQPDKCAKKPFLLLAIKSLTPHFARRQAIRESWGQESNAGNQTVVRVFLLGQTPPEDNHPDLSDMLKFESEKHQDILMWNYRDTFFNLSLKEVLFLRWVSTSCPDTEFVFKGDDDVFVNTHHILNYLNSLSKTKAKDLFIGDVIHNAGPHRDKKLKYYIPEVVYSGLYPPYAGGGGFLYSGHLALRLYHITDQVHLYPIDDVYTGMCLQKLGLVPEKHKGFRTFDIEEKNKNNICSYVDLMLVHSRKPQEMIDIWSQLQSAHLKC

B1: KRT6B (protein)
chain: ASTSTTIRSHSSSRRGFSANSARLPGVSRSGFSSISVSRSRGSGGLGGACGGAGFGSRSLYGLGGSKRISIGGGSCAISGGYGSRAGGSYGFGGAGSGFGFGGGAGIGFGLGGGAGLAGGFGGPGFPVCPPGGIQEVTVNQSLLTPLNLQIDPAIQRVRAEEREQIKTLNNKFASFIDKVRFLEQQNKVLDTKWTLLQEQGTKTVRQNLEPLFEQYINNLRRQLDNIVGERGRLDSELRNMQDLVEDLKNKYEDEINKRTAAENEFVTLKKDVDAAYMNKVELQAKADTLTDEINFLRALYDAELSQMQTHISDTSVVLSMDNNRNLDLDSIIAEVKAQYEEIAQRSRAEAESWYQTKYEELQITAGRHGDDLRNTKQEIAEINRMIQRLRSEIDHVKKQCANLQAAIADAEQRGEMALKDAKNKLEGLEDALQKAKQDLARLLKEYQELMNVKLALDVEIATYRKLLEGEECRLNGEGVGQVNISVVQSTVSSGYGGASGVGSGLGLGGGSSYSYGSGLGVGGGFSSSSGRATGGGLSSVGGGSSTIKYTTTSSSSRKSYKH
B2: CAT (protein)
chain: ADSRDPASDQMQHWKEQRAAQKADVLTTGAGNPVGDKLNVITVGPRGPLLVQDVVFTDEMAHFDRERIPERVVHAKGAGAFGYFEVTHDITKYSKAKVFEHIGKKTPIAVRFSTVAGESGSADTVRDPRGFAVKFYTEDGNWDLVGNNTPIFFIRDPILFPSFIHSQKRNPQTHLKDPDMVWDFWSLRPESLHQVSFLFSDRGIPDGHRHMNGYGSHTFKLVNANGEAVYCKFHYKTDQGIKNLSVEDAARLSQEDPDYGIRDLFNAIATGKYPSWTFYIQVMTFNQAETFPFNPFDLTKVWPHKDYPLIPVGKLVLNRNPVNYFAEVEQIAFDPSNMPPGIEASPDKMLQGRLFAYPDTHRHRLGPNYLHIPVNCPYRARVANYQRDGPMCMQDNQGGAPNYYPNSFGAPEQQPSALEHSIQYSGEVRRFNTANDDNVTQVRAFYVNVLNEEQRKRLCENIAGHLKDAQIFIQKKAVKNFTEVHPDYGSHIQALLDKYNAEKPKNAIHTFVQSGSHLAAREKANL
B3: LSM12 (protein)
chain: AAPPGEYFSVGSQVSCRTCQEQRLQGEVVAFDYQSKMLALKCPSSSGKPNHADILLINLQYVSEVEIINDRTETPPPLASLNVSKLASKARTEKEEKLSQAYAISAGVSLEGQQLFQTIHKTIKDCKWQEKNIVVMEEVVITPPYQVENCKGKEGSALSHVRKIVEKHFRDVESQKILQRSQAQQPQKEAALSS
B4: DNAJC3 (protein)
chain: GVNADVEKHLELGKKLLAAGQLADALSQFHAAVDGDPDNYIAYYRRATVFLAMGKSKAALPDLTKVIQLKMDFTAARLQRGHLLLKQGKLDEAEDDFKKVLKSNPSENEEKEAQSQLIKSDEMQRLRSQALNAFGSGDYTAAIAFLDKILEVCVWDAELRELRAECFIKEGEPRKAISDLKAASKLKNDNTEAFYKISTLYYQLGDHELSLSEVRECLKLDQDHKRCFAHYKQVKKLNKLIESAEELIRDGRYTDATSKYESVMKTEPSIAEYTVRSKERICHCFSKDEKPVEAIRVCSEVLQMEPDNVNALKDRAEAYLIEEMYDEAIQDYETAQEHNENDQQIREGLEKAQRLLKQSQKRDYYKILGVKRNAKKQEIIKAYRKLALQWHPDNFQNEEEKKKAEKKFIDIAAAKEVLSDPEMRKKFDDGEDPLDAESQQGGGGNPFHRSWNSWQGFNPFSSGGPFRFKFHFN
B5: ATXN2 (protein)
chain: MRSAAAAPRSPAVATESRRFAAARWPGWRSLQRPARRSGRGGGGAAPGPYPSAAPPPPGPGPPPSRQSSPPSASDCFGSNGNGGGAFRPGSRRLLGLGGPPRPFVVLLLPLASPGAPPAAPTRASPLGARASPPRSGVSLARPAPGCPRPACEPVYGPLTMSLKPQQQQQQQQQQQQQQQQQQQQQQQPPPAAANVRKPGGSGLLASPAAAPSPSSSSVSSSSATAPSSVVAATSGGGRPGLGRGRNSNKGLPQSTISFDGIYANMRMVHILTSVVGSKCEVQVKNGGIYEGVFKTYSPKCDLVLDAAHEKSTESSSGPKREEIMESILFKCSDFVVVQFKDMDSSYAKRDAFTDSAISAKVNGEHKEKDLEPWDAGELTANEELEALENDVSNGWDPNDMFRYNEENYGVVSTYDSSLSSYTVPLERDNSEEFLKREARANQLAEEIESSAQYKARVALENDDRSEEEKYTAVQRNSSEREGHSINTRENKYIPPGQRNREVISWGSGRQNSPRMGQPGSGSMPSRSTSHTSDFNPNSGSDQRVVNGGVPWPSPCPSPSSRPPSRYQSGPNSLPPRAATPTRPPSRPPSRPSRPPSHPSAHGSPAPVSTMPKRMSSEGPPRMSPKAQRHPRNHRVSAGRGSISSGLEFVSHNPPSEAATPPVARTSPSGGTWSSVVSGVPRLSPKTHRPRSPRQNSIGNTPSGPVLASPQAGIIPTEAVAMPIPAASPTPASPASNRAVTPSSEAKDSRLQDQRQNSPAGNKENIKPNETSPSFSKAENKGISPVVSEHRKQIDDLKKFKNDFRLQPSSTSESMDQLLNKNREGEKSRDLIKDKIEPSAKDSFIENSSSNCTSGSSKPNSPSISPSILSNTEHKRGPEVTSQGVQTSSPACKQEKDDKEEKKDAAEQVRKSTLNPNAKEFNPRSFSQPKPSTTPTSPRPQAQPSPSMVGHQQPTPVYTQPVCFAPNMMYPVPVSPGVQPLYPIPMTPMPVNQAKTYRAVPNMPQQRQDQHHQSAMMHPASAAGPPIAATPPAYSTQYVAYSPQQFPNQPLVQHVPHYQSQHPHVYSPVIQGNARMMAPPTHAQPGLVSSSATQYGAHEQTHAMYACPKLPYNKETSPSFYFAISTGSLAQQYAHPNATLHPHTPHPQPSATPTGQQQSQHGGSHPAPSPVQHHQHQAAQALHLASPQQQSAIYHAGLAPTPPSMTPASNTQSPQNSFPAAQQTVFTIHPSHVQPAYTNPPHMAHVPQAHVQSGMVPSHPTAHAPMMLMTTQPPGGPQAALAQSALQPIPVSTTAHFPYMTHPSVQAHHQQQL
B6: MOV10 (protein)
chain: MPSKFSCRKLRETGQRFESFLAERGLDLETDRERLRTIYNHDFKPSYGTPAPGFSSMLYGMKIANLAFVTKTRVRFFKLDRWADVQLPEKRRIKPGSNISKQHRSLLARIFHDRAEYLHGKHGVDVEVQGPHEARDGQLLIHLDLNRKEVLTLRLRNGGSKPVTLTHLFPLCWTPQFVFYHGEQDLPCPLGPGESYELHIYCKTSIVGYFPATVLWELLGPGESGAEGAETFYIARFLAAVAHSPLAAQLKPTTPFKRPPRLTRNSVLTNRIEEGERPDRAKGYELELSLALGTYYPPILLRQLLPTLLQGPSIFTAPKEVAEIKAQLETTLKSRNYEVKLRLLLHLEELQMEHDIRHYDLDSVPMTWDPVDQNPRLLTLEVPGVAESRPSVLRGDHLFALLSSETQQDDPVTYKGFVHKVELDRVKLSFSTSLLSRFVDGLTFKVNFTFNRQPLRVQHRALELTGRWVLWPMLFPVASRGVSLLPSDVKFKLYDRSLESNPEQLQAMKHIVRGTTRPAPYIIFGPPGTGKTVTLVEAIKQVVKHLPKAHILACAPSNSGADLLCQRLRVHLPSSIYRLLAPSRDIRMVPEDIKTCCNWDAKKGEYVYPAKKHLQQYRVLITTLITASRLVSAQFPIDHFTHIFIDEAGHCMEPESLVAIAGLMDVKETGNPGGQLVLAGDPRQLGPVLRSPLALKHGLGYSLLERLLAYNSLYKKGPNGYDPQFITKLLRNYRSHPTILDIPNQLYYDGELQACADVVDRERFCRWEGLPQQGFPIIFHGVMGKDEREGNSPSFFNPEEAATVTSYLKQLLAPSSKKGKARLSPRNVGVISPYRKQVEKIRYCITKLDRELRGLDDIKDLKVGSVEEFQGQERSVILISTVRSSQSFVQLDLDFNLGFLKNPKRFNVAVTRAKALLIVVGNPLLLGHDPDWKTFLEFCKENGGYTGCPFPAKLDLQQGQDLLQGLSKLSPSTSGPRRHQNLPQEREGEGGLPLQVEPEWRNEL
B7: SLC25A6 (protein)
chain: MTEQAISFAKDFLAGGIAAAISKTAVAPIERVKLLLQVQHASKQIAADKQYKGIVDCIVRIPKEQGVLSFWRGNLANVIRYFPTQALNFAFKDKYKQIFLGGVDKHTQFWRYFAGNLASGGAAGATSLCFVYPLDFARTRLAADVGKSGTEREFRGLGDCLVKITKSDGIRGLYQGFSVSVQGIIIYRAAYFGVYDTAKGMLPDPKNTHIVVSWMIAQTVTAVAGVVSYPFDTVRRRMMMQSGRKGADIMYTGTVDCWRKIFRDEGGKAFFKGAWSNVLRGMGGAFVLVLYDELKKVI

The molecules below were run against T1, B3GNT2 (assay: Co-IP of FLAG-tagged B3GNT2 followed by mass spectrometry). Conditions: Co-IP followed by mass spectrometry of B3GNT2; C-term tag, FLAG pull-down.
Assay type: cell-based
Parameters: C-term IgG / C-term flag: unit not given here
Procedure, shortened: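 FLAG-tagged B3GNT2 immunoprecipitated from cell lysate (HEPES, 1% Triton X-100, 150 mM NaCl) with anti-FLAG versus […], overnight at 4° C, then captured on Protein A/G magnetic beads for 4 h. Two biological replicates per condition. Peptides fractionated and analyzed by nano-LC on an Orbitrap Elite in data-dependent mode.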

Molecule	C-term flag
B1	331
B2	0
B3	4
B4	3
B5	3
B6	3

Same assay, conditions: Co-IP followed by mass spectrometry of B3GNT2; C-term tag, IgG pull-down

Molecule	C-term IgG
B1	295
B2	3
B3	0
B4	0
B5	3
B6	3

Same assay, conditions: Co-IP followed by mass spectrometry of B3GNT2; N-term tag, FLAG pull-down

Molecule	N-term FLAG
B1	370
B2	6
B3	4
B4	0
B5	4
B6	4

Same assay, conditions: Co-IP followed by mass spectrometry of B3GNT2; N-term tag, IgG pull-down

Molecule	N-term IgG
B1	316
B2	2
B3	2
B4	0
B5	3
B6	3

Same assay, conditions: Co-IP with FLAG antibody, C-terminally FLAG-tagged B3GNT2; mass spectrometry count, unit not given

Molecule	C-term flag
B7	19

Same assay, conditions: Co-IP with FLAG antibody, N-terminally FLAG-tagged B3GNT2; mass spectrometry count, unit not given

Molecule	N-term FLAG
B7	15

Same assay, conditions: Co-IP with IgG control antibody, C-terminally FLAG-tagged B3GNT2; mass spectrometry count, unit not given

Molecule	C-term IgG
B7	0

Same assay, conditions: Co-IP with IgG control antibody, N-terminally FLAG-tagged B3GNT2; mass spectrometry count, unit not given

Molecule	N-term IgG
B7	0
